US20250011363A1, “OPTIMIZED SHORTENED PEPTIDE THAT BINDS TO ACETYLCHOLINE RECEPTOR, AND USE THEREOF” (SKINMED CO., LTD., priority 2021, published 2025)

target: acetylcholine receptor (Homo sapiens, UniProt P02708); test: SPR binding affinity (RU) of optimized 5mer/6mer/7mer peptides, Examples 6-7; settings: SPR, Resonance Units; peptides tested at 10 μM; 6mer-1 Bottom sequence (Table 11)
Outline: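 Synthetic 5mer and 6mer peptides, built from frequent or infrequent amino-acid combinations, were tested at 10 μM for binding to the human acetylcholine receptor by surface plasmon resonance. Binding is reported in response units (RU).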

Sequence of acetylcholine receptor (P02708 21-457): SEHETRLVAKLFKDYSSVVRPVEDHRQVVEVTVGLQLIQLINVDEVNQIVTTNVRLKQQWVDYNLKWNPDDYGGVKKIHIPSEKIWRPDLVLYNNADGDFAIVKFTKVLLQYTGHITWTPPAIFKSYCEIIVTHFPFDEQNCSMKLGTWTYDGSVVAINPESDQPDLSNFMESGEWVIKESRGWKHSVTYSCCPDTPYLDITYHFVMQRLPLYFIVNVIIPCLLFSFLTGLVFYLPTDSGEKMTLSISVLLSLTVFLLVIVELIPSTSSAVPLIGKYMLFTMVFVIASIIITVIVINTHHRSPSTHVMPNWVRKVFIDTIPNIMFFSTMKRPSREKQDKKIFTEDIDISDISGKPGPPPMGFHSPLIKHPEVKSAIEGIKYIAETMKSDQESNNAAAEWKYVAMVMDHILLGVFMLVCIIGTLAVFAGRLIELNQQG

Substance	Binding affinity
6mer-1-650 (RRCNNR)	18 Ru
6mer-1-651 (KRICWK)	27 Ru
6mer-1-652 (RRPEVK)	26 Ru
6mer-1-653 (KRMTHR)	15 Ru
6mer-1-654 (KRMNDR)	23 Ru
6mer-1-655 (RKNMFR)	12 Ru
6mer-1-656 (RRPTHK)	28 Ru
6mer-1-657 (RRCTVR)	17 Ru
6mer-1-658 (RKKEMK)	20 Ru
6mer-1-659 (KKPSKR)	29 Ru
6mer-1-660 (KKYHVK)	31 Ru
6mer-1-661 (RKPKWR)	14 Ru
6mer-1-662 (KKMTER)	20 Ru
6mer-1-663 (KKFKDR)	26 Ru
6mer-1-664 (KRDHIK)	26 Ru
6mer-1-665 (KKCDGK)	21 Ru
6mer-1-666 (KKAANK)	18 Ru
6mer-1-667 (KRDSPK)	32 Ru
6mer-1-668 (RKATVK)	17 Ru
6mer-1-669 (KRNMAK)	23 Ru
6mer-1-670 (KKDWNR)	11 Ru
6mer-1-671 (KKNMVR)	11 Ru
6mer-1-672 (RKMEIR)	17 Ru
6mer-1-673 (RRAMPK)	16 Ru

Substance	Binding affinity
6mer-1-674 (RKHPKK)	32 Ru
6mer-1-675 (KKIWKR)	21 Ru
6mer-1-676 (KRCPWR)	16 Ru
6mer-1-677 (KKCCFR)	22 Ru
6mer-1-678 (KRMAAK)	25 Ru
6mer-1-679 (KKAEER)	30 Ru
6mer-1-680 (KKDPPR)	27 Ru
6mer-1-681 (KKEWKK)	32 Ru
6mer-1-682 (KKKDIR)	30 Ru
6mer-1-683 (KRDSMR)	16 Ru
6mer-1-684 (KRNNDR)	20 Ru
6mer-1-685 (RRESWK)	14 Ru
6mer-1-686 (KKYEVR)	25 Ru
6mer-1-687 (RREWIK)	23 Ru
6mer-1-688 (RKDEVR)	33 Ru
6mer-1-689 (KRCPVR)	11 Ru
6mer-1-690 (KREAER)	21 Ru
6mer-1-691 (RKPKAR)	31 Ru
6mer-1-692 (RKNTHK)	22 Ru
6mer-1-693 (RKIDMK)	22 Ru
6mer-1-694 (RKYTKR)	27 Ru
6mer-1-695 (KRADVK)	13 Ru
6mer-1-696 (KKHCNR)	18 Ru
6mer-1-697 (RRPTNR)	13 Ru

Substance	Binding affinity
6mer-1-698 (KRFNHK)	27 Ru
6mer-1-699 (RRTTVR)	28 Ru
6mer-1-700 (RKKMWK)	19 Ru
6mer-1-701 (RRKTWR)	13 Ru
6mer-1-702 (KRDWVK)	31 Ru
6mer-1-703 (KKFHPR)	18 Ru
6mer-1-704 (RRMCER)	16 Ru
6mer-1-705 (KRTEWR)	12 Ru
6mer-1-706 (KRMKDR)	29 Ru
6mer-1-707 (KRFWPK)	26 Ru
6mer-1-708 (KKKHEK)	14 Ru
6mer-1-709 (KKFKPK)	29 Ru
6mer-1-710 (KKMHHR)	21 Ru
6mer-1-711 (RRATHR)	19 Ru
6mer-1-712 (KKPSNK)	24 Ru
6mer-1-713 (KKATNK)	20 Ru
6mer-1-714 (KRTSFK)	25 Ru
6mer-1-715 (KRMMVK)	18 Ru
6mer-1-716 (RRMPFK)	11 Ru
6mer-1-717 (KRHEDR)	22 Ru
6mer-1-718 (RKFKAR)	23 Ru
6mer-1-719 (KKDAEK)	27 Ru
6mer-1-720 (RRKHKR)	11 Ru
6mer-1-721 (RKAMEK)	22 Ru

Substance	Binding affinity
6mer-1-722 (RRNKVR)	12 Ru
6mer-1-723 (RKMPAK)	33 Ru
6mer-1-724 (KRPKNK)	19 Ru
6mer-1-725 (KKDKPK)	32 Ru
6mer-1-726 (KKHSMK)	33 Ru
6mer-1-727 (RKANGK)	29 Ru
6mer-1-728 (RRDNAR)	23 Ru
6mer-1-729 (KKKSGK)	23 Ru
6mer-1-730 (KRATFR)	13 Ru
6mer-1-731 (RRIKAR)	18 Ru
6mer-1-732 (RRAAVR)	26 Ru
6mer-1-733 (KKKMFK)	21 Ru
6mer-1-734 (RRTHER)	21 Ru
6mer-1-735 (RKDKER)	19 Ru
6mer-1-736 (KKATDK)	15 Ru
6mer-1-737 (RRKNAR)	27 Ru
6mer-1-738 (RKYHHR)	25 Ru
6mer-1-739 (RKCCEK)	32 Ru
6mer-1-740 (RKDNKR)	26 Ru
6mer-1-741 (RKEAGR)	24 Ru
6mer-1-742 (RRFHWR)	14 Ru
6mer-1-743 (KKTMVR)	14 Ru
6mer-1-744 (RKHEIK)	31 Ru
6mer-1-745 (KKTMEK)	11 Ru

Substance	Binding affinity
6mer-1-746 (RKMSVK)	24 Ru
6mer-1-747 (KKTMDR)	24 Ru
6mer-1-748 (RKHNGR)	24 Ru
6mer-1-749 (RKPHWR)	33 Ru
6mer-1-750 (KRENIK)	33 Ru
6mer-1-751 (RRTNFK)	27 Ru
6mer-1-752 (KRPTEK)	16 Ru
6mer-1-753 (KKDTHK)	12 Ru
6mer-1-754 (RKKKMK)	24 Ru
6mer-1-755 (RRANMR)	25 Ru
6mer-1-756 (RKAKMK)	33 Ru
6mer-1-757 (RKDNEK)	26 Ru
6mer-1-758 (KKYHHR)	33 Ru
6mer-1-759 (RKMTWR)	23 Ru
6mer-1-760 (KRMMVR)	21 Ru
6mer-1-761 (RKETFR)	33 Ru
6mer-1-762 (KKTKAR)	13 Ru
6mer-1-763 (RRDCAK)	12 Ru
6mer-1-764 (RRNPFK)	24 Ru
6mer-1-765 (KRASPK)	25 Ru
6mer-1-766 (RKCTIR)	15 Ru
6mer-1-767 (KRTPDK)	18 Ru
6mer-1-768 (RKFEWK)	32 Ru
